Data: the supplement of paper PMC12764529
± gives the half width of the 95% confidence interval.

Test: folding stability dG unfold (combined trypsin and chymotrypsin); higher = more stable
Outline: (§1)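 Unfolding free energy was derived, per protease or combined, by relating Bayesian-fitted K50 values from sequencing counts to a sequence-predicted unfolded-state K50 and a shared folded-state K50. The underlying digests exposed cysteine-free mini-proteins under 80 residues, in a PA-tagged cDNA display construct, to trypsin and chymotrypsin at 11 threefold-diluted concentrations and to a no-protease condition. A filter kept only designs with AlphaFold2 dimer inter-PAE above 15.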

Row | Sequence | folding stability dG unfold
1 | SKTIMFQFDSIEEIKDFIKEAIDDGDPDQKIRIEWYPPGGRRQEHEIESPEDIIDFLENGPYWIRVEIEPSA [r9_589_TrROS] | 2.05 ± 0.12 kcal/mol
2 | SAGGSAGGSAGGSKKKKKKKKKKVVKLTVLIEKDGELYLVEIEFDKDGKIVSISVEKLPSAGGSAGGSAGGS [r4_192_TrROS_Hall] | 3.27 ± 0.32 kcal/mol
3 | SAGGKIKKGETVKIKIEIENKNGEKKTIELEVKKEDLEKLKELIEKLKEKGFKIKKIEIKVLKKEKKSAGGS [r8_497_TrROS_Hall] | 2.51 ± 0.2 kcal/mol
4 | SAPPKTRTREIEIRFDDYYVRIKITWTKDGNLKLDIEFQGPNPVMREQIKDFLEELNPDFEITDIEVYRSAG [r14_611_TrROS] | 2.38 ± 0.3 kcal/mol
5 | SAGGGSLEKIREAGKKGYLVRIELETGERRVIPIEDLIRDPRFGPDVPLAELRVRRIELLPPDDGLPLSAGG [r13_587_TrMRF] | 1.13 ± 0.062 kcal/mol
6 | SAMVLKVEEEPFPPNAKREVKEIRKDPNSDNLFKVKIELEKSPDPSVTSAKVITIPPDGSKKVEEKVLESAG [r14_10_JUSTAS] | 0.508 ± 0.59 kcal/mol
7 | MKEYLIKIKITITDPNGKKREIEITVLVPAEELTEEQLKELLEKAKELAEKLKEKGYEVKVEVEIIPLEELS [r1_221_TrROS_Hall] | 4.25 ± 0.27 kcal/mol
8 | SMVKIYFPNAPPELVAEAIEKHPDSTVEIYFEPGKPDVFESILKDYDVEVEPFPTEDGRLLVKARVKVPGSA [r9_1138_TrMRF] | 1.74 ± 0.29 kcal/mol
9 | SAGGEMVTIRVRAPDPEKLIEALREEFPEGLTIRPFPRPTPDGYEVLIVVPAERPEELLEAVERAIGSAGGS [r16_43_TrMRF] | 2.13 ± 0.068 kcal/mol
10 | SAGGSAGGMKIKVKFTITKSDPNSDSPVPRVITKEFESLEEAEKEFNKLKNLPSGYTVEVEIVESAGGSAGG [r7_0_JUSTAS] | 3.62 ± 0.1 kcal/mol
11 | SAGGSADENGKPKPTLIIKIEVEHPNGQKFPLSFIFKSPEEAEEIANELANNGYEVNIRLMPLDQISAGGSA [r15_906_TrROS] | 1.55 ± 0.059 kcal/mol
12 | SAGGWRYILRQIREAAKNGEEVTINFPPGMNPSFLLSWIRKENGAEVKPITVKPNPNGYGTINIKVKSAGGS [r16_318_TrROS] | 1.8 ± 0.073 kcal/mol
13 | SAGGRVDVRVERVGEGAVITLLADVEDPEPLVELLEASGLPVELARIEPVRDPVTGRLLVRAVFRVPSAGGS [r16_699_TrMRF] | 1.13 ± 0.095 kcal/mol
14 | SAGGSAMAYLVRAELEVEGPDGRRERLELVLVAEDLPLEEALAAAREAAAELGAELVSVEVEPLEPSAGGSA [r15_550_TrMRF] | 2.21 ± 0.098 kcal/mol
15 | SAGGSAGGSAGKKLKPFKVVEVKEPVKEGDVIEVENEATGELYRFTVVNGEIKIEKVKLDSAGGSAGGSAGG [r11_94_TrROS_Hall] | 0.365 ± 0.29 kcal/mol
16 | SAGGSAGGSAGWGLIITIEVEGEYDPANGQWSLNIEIEIQPIRIPPPKEPPPDDNPNNDDSAGGSAGGSAGG [r17_454_TrROS] | 3.86 ± 0.32 kcal/mol
17 | SPAGELVSSTFPVTVTVTVWRRLPDGTWTPVGTETFTVTVTVAGIPEEVAEALRKAAETPPPPPNLAGLLSA [r9_1192_TrMRF] | 1.93 ± 0.054 kcal/mol
18 | SAGGPMKPFLKNFSGPEEAIAFVNKLREELKGPVGLTLIFPDGSVIEVVDPQKLESIDNFEVIVTVSESAGG [r13_620_JUSTAS] | 1.69 ± 0.096 kcal/mol
19 | SAGGSAGGPLVLRIETPEDKVLVLVLPEEAEKLPPKELAEIAAKEFAALPGVKEVKVEIAPLPLSAGGSAGG [r6_710_TrMRF] | 1.03 ± 0.12 kcal/mol
20 | SAGMKKTITIKIEVPEKPIRIIVEKNGKKEEITIKPGETVTIEIELEPGETLRIRIVNEDGEEFEFEIKSAG [r5_187_TrROS_Hall] | 3.68 ± 0.28 kcal/mol
21 | SAGGSAGGSAGGMEKLSETVTETVEVTLTSGDKTYTFTVTTTTVVLPDGTVETLEVTLQPSAGGSAGGSAGG [r11_95_JUSTAS] | 2.81 ± 0.14 kcal/mol

Test: folding stability dG unfold from chymotrypsin proteolysis; higher = more stable
Outline: as §1

Row | Sequence | folding stability dG unfold
22 | SAGGSAGGSAGKKPPVYRLVVENEDGEKYEFEFKSLEDLKAALESEEVRKKIKKVKIEKVSAGGSAGGSAGG [r11_1047_TrROS_Hall] | 3.02 ± 0.11 kcal/mol
23 | SAGGSAGGSAGPEIELREDSLVIRVKAKEGEVIGVPEGLEVEGVVYDPSTGELTVVVRAPSAGGSAGGSAGG [r11_942_TrMRF] | 1.73 ± 0.096 kcal/mol
24 | SAGGSAGGSAGGSSSSSITTEERPVDEDSVEKTFKFPDYYVVETLDPRTGRTSVSFIPVSAGGSAGGSAGGS [r4_99_JUSTAS] | 0.249 ± 0.041 kcal/mol
25 | SAGGSAAKIDPKNGTITIYNKKTGKKIKIKIKNLPPGAKVTIEIKNGKITIKVDGKTIEINIKEIKSAGGSA [r15_864_TrROS_Hall] | 3.19 ± 0.19 kcal/mol
26 | SAGAKAEPGPSGRLRIYLPDEPIELDVTEDGTVTLTFPNGEKVEFPVEKEKAALVLAELNALGAVVVPQSAG [r5_753_TrMRF] | 1.09 ± 0.055 kcal/mol
27 | SAGGSAGGSEFYVIKIKNPETKKEIELVFEGSEEEIKAAIEELAKKPNLKIEIKKIKVSKEELSAGGSAGGS [r12_92_TrROS_Hall] | 1.78 ± 0.074 kcal/mol
28 | SAGNPDYIPIPFRVWIMRRVPPGMSKEQAKKNPDMYVMVPIPVKFYIDPDTGRIRVENPDGKTIEFPLPSAG [r5_701_TrROS] | 3.15 ± 0.07 kcal/mol
29 | SAGGSAGGSGGMMPVTLTITPVNPPGASTSSTTIPVNFTSPEEAAAAKEKIAAELPSNATVTGSAGGSAGGS [r20_211_JUSTAS] | -1.1 ± 0.4 kcal/mol
30 | SAGGSASMVEEEVTLQKKVKSEEEALKFAEEVKESNPHVKTVEVSLEKLPDGSILVNVTIKRILKPSAGGSA [r15_726_JUSTAS] | 3.31 ± 0.093 kcal/mol
31 | SAGGSAGGSADDEVVEIVDVLPLPNRPVLVVKVRGPDGQTKVYDPATGKWLTPEEAKAALSSAGGSAGGSAG [r3_206_TrMRF] | 1.98 ± 0.045 kcal/mol
